Experimental data taken from paper doi:10.1101/2023.08.10.552896.
Like-named read-outs stand apart in the source and are kept apart here.

Key:
[1] = molecular target: Transthyretin, wild type, first purification protocol (TTR1st) (human (by the printed accession P02766)) (UniProt P02766); assay: SEC
[2] = molecular target: Transthyretin, wild type, first purification protocol (TTR1st) (human (by the printed accession P02766)) (UniProt P02766); assay: SEC; remark: listed apart in the source

“Transthyretin, wild type, first purification protocol (TTR1st) (from UniProt P02766 21-147) (enzyme)” showed a percent of the sample as oligomers (oTTR) [1] of 7%, a percent of the sample as tetramer [1] of 93% and a stoichiometry N [1] of 4. For the same substance, the percent of the sample as oligomers (oTTR) [2] was 4%.
